Substitutions are numbered along the chain they refer to. One block for each binder: values may come before it.
Target: T1, C3b (UniProt P01024 23-667; P01024 749-1663)
T1 construct: Amine-coupled to a CM5 Biacore chip in the SPR assays; in solution in the cofactor assay; also called complement C3b
Assay: SPR (Biacore), C3b amine-coupled to a CM5 chip, steady-state fit over two flow cells (1540 and 3030 RU of C3b)
Protocol: FIG. 3G—(i) and (ii)—Use of SPR to measure affinity of (i)rFH and (ii) plasma-purified FH for C3b coupled to aCM5 sensor chip (Biacore). Duplicate sensorgrams are shown for a concentration series (5.4 μM, 1.0 μM, 0.5 μM, 0.1 μM) flowed over 1540 response units of immobilised C3b. (iii) and (iv)—Plots of response units versus (iii)rFH or (iv) plasma-purified FH concentrations for two different flow cells with either 1540 RUs (lower curve in each plot) or 3030 RUs (upper curve in each plot) of C3b.

T1 sequence (P01024 23-667 limits assumed, chain 1 of 2): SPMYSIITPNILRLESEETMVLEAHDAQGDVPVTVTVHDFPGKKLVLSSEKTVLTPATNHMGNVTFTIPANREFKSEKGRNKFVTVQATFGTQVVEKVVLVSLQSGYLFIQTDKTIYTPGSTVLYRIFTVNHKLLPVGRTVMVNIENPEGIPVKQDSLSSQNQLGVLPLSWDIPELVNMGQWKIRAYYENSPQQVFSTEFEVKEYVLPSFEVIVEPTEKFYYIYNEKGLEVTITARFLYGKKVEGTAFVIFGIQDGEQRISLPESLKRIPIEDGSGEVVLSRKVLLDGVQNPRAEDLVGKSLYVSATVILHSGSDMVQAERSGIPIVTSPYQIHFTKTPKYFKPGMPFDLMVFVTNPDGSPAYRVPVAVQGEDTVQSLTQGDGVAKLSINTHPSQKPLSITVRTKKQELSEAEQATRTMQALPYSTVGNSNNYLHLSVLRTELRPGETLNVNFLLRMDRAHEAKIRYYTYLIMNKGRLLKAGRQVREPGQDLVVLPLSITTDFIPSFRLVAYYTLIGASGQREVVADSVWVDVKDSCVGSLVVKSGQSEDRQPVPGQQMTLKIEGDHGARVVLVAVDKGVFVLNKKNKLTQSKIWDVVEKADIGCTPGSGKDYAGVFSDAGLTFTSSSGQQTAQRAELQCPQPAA
T1 sequence (P01024 749-1663 limits assumed, chain 2 of 2): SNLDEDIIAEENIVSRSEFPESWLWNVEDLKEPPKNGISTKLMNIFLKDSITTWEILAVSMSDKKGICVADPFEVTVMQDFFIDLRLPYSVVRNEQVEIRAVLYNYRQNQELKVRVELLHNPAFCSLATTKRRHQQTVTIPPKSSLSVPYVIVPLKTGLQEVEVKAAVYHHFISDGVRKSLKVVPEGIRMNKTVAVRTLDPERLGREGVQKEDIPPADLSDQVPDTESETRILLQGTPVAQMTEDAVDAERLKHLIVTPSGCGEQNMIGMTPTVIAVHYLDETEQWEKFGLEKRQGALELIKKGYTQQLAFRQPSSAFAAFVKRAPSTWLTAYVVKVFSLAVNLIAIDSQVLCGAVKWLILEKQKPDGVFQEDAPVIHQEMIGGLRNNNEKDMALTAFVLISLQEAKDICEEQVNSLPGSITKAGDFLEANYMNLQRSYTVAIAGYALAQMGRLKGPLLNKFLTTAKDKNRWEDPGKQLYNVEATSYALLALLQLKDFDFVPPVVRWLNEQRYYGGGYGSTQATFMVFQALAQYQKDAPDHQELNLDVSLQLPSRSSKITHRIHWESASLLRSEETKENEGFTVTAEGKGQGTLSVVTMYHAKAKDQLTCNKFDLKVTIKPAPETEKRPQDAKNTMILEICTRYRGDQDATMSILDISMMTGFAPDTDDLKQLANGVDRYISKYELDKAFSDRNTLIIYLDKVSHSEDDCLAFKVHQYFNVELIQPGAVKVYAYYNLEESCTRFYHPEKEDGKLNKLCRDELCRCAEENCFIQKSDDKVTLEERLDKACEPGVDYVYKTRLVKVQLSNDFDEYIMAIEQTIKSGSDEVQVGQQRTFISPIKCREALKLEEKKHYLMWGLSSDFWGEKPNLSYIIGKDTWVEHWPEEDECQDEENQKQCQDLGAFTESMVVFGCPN

- Kd: 1400 nM
B1: recombinant human complement factor H (rFH) expressed from codon-optimised DNA in Pichia pastoris (other, UniProt P08603 19-1231, looked up)
chain: EDCNELPPRRNTEILTGSWSDQTYPEGTQAIYKCRPGYRSLGNIIMVCRKGEWVALNPLRKCQKRPCGHPGDTPFGTFTLTGGNVFEYGVKAVYTCNEGYQLLGEINYRECDTDGWTNDIPICEVVKCLPVTAPENGKIVSSAMEPDREYHFGQAVRFVCNSGYKIEGDEEMHCSDDGFWSKEKPKCVEISCKSPDVINGSPISQKIIYKENERFQYKCNMGYEYSERGDAVCTESGWRPLPSCEEKSCDNPYIPNGDYSPLRIKHRTGDEITYQCRNGFYPATRGNTAKCTSTGWIPAPRCTLKPCDYPDIKHGGLYHENMRRPYFPVAVGKYYSYYCDEHFETPSGSYWDHIHCTQDGWSPAVPCLRKCYFPYLENGYNQNYGRKFVQGKSIDVACHPGYALPKAQTTVTCMENGWSPTPRCIRVKTCSKSSIDIENGFISESQYTYALKEKAKYQCKLGYVTADGETSGSITCGKDGWSAQPTCIKSCDIPVFMNARTKNDFTWFKLNDTLDYECHDGYESNTGSTTGSIVCGYNGWSDLPICYERECELPKIDVHLVPDRKKDQYKVGEVLKFSCKPGFTIVGPNSVQCYHFGLSPDLPICKEQVQSCGPPPELLNGNVKEKTKEEYGHSEVVEYYCNPRFLMKGPNKIQCVDGEWTTLPVCIVEESTCGDIPELEHGWAQLSSPPYYYGDSVEFNCSESFTMIGHRSITCIHGVWTQLPQCVAIDKLKKCKSSNLIILEEHLKNKKEFDHNSNIRYRCRGKEGWIHTVCINGRWDPEVNCSMAQIQLCPPPPQIPNSHNMTTTLNYRDGEKVSVLCQENYLIQEGEEITCKDGRWQSIPLCVEKIPCSQPPQIEHGTINSSRSSQESYAHGTKLSYTCEGGFRISEENETTCYMGKWSSPPQCEGLPCKSPPEISHGVVAHMSDSYQYGEEVTYKCFEGFGIDGPAIAKCLGEKWSHPPSCIKTDCLSLPSFENAIPMGEKKDVYKAGEQVTYTCATYYKMDGASNVTCINSRWTGRPTCRDTSCVNPPTVQNAYIVSRQMSKYPSGERVRYQCRSPYEMFGDEEVMCLNGNWTEPPQCKDSTGKCGPPPPIDNGDITSFPLSVYAPASSVEYQCQNLYQLEGNKRITCRNGQWSEPPKCLHPCVISREIMENYNIALRWTAKQKLYSRTGESVEFVCKRGYRLSSRSHTLRTTCWDGKLEYPTCAKR
modifications: N-glycans removed with Endo Hf after expression
notes: mature; also called rhFH; recombinant FH

- Kd: 2900 nM
B2: plasma-purified human factor H (other, UniProt P08603 19-1231, looked up)
chain: B1 chain with I44V
notes: mature; Bought, plasma-derived; also called FH; plasma FH

— patent US20150139975A1 (published 2015)
